In article PMC6445123 (Scientific Reports, 2019):
Marks after values point to notes of the source that are not given here.

T1: recombinant active Casp6 (Casp6-WT) (Homo sapiens, UniProt P55212, INS179NQTEKLDTNITEVD)
T1 construct: generating mainly large subunit with a linker (LS-L), small subunit (SS), and a minor amount of large subunit (LS); His (C); made in house; host or cells: E. coli BL21(DE3)pLysS
T1 sequence (P55212 24-193 limits assumed): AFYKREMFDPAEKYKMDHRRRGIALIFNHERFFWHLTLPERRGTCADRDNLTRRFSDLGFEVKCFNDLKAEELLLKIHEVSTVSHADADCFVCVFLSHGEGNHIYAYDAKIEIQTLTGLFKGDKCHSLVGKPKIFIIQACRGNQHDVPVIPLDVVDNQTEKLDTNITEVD
T1 sequence (P55212 194-293 limits assumed): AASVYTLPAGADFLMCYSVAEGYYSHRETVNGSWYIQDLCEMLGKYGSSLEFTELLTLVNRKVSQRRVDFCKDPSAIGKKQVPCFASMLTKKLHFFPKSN


Assays:
[1] = target: T1, recombinant active Casp6 (Casp6-WT); assay: Fluorescence-based Ac-VEID-AFC cleavage assay (Casp6 activity, IC50 determination); type: biochemical; details: for % Inhibition with 100 µM compound (fluorescence assay) / IC50: 10 µM Ac-VEID-AFC; for % Inhibition with 100 µM compound (fluorescence assay): 20 nM Casp6, relative to 1% DMSO control; for fold increase in IC50 (reduction in potency) compared to C13: Casp6-WT; for IC50: fluorescence assay, 20 nM Casp6 active sites, read-out: IC50
Method: To assess the potency of in silico hits, a fluorescence-based Ac-VEID-AFC cleavage assay was used to measure recombinant active Casp6 reaction rate in the absence or presence of 100 µM concentration of compounds. A 30% inhibition cut off was arbitrarily chosen for further investigation of putative inhibitors. […] AFC signal interference by compound intrinsic fluorescence was ruled out (Fig. S4). Casp6 inhibition was confirmed for seven compounds (C7, C13, C14, S2, S10, S11 and S13) using a colorimetric Ac-VEID-pNA cleavage assay (Table 2, Fig. S3).
(§1) Casp6 active sites were quantified using zVAD-FMK (N-benzyloxycarbonyl-Val-Ala-Asp-(O-methyl)-fluoromethylketone, MP Biomedicals, Santa Ana, CA, USA)[51],[64]. Casp6 activity was measured in Stennicke’s buffer (SB: 20 mM piperazine-N,N′-bis-(2-ethanesulfonic acid) pH 7.2, 100 mM NaCl, 10 mM DTT, 1 mM EDTA, 0.1% 3-[(3-cholamidopropyl)-dimethylammonio]-2-hydroxy-1-propanesulfonic acid, 10% sucrose)[65] using 40 µM Ac-VEID-AFC (Ac-Val-Glu-Ile-Asp-7-Amino-4-trifluoromethylcoumarin, Enzo Life Sciences, Farmingdale, NY, USA)[64] and 10-250 nM active site titrated Casp6. Reactions were initiated by Ac-VEID-AFC addition and followed for 20 min at 37 °C in a black clear bottom 96-well microplate (Costar, Corning, NY, USA) in Synergy H4 Hybrid instrument (BioTek, Winooski, VT, USA) with excitation/emission at 380/505 nm. Released AFC was calculated from AFC standard curve (0-25 µM). Casp6 VEIDase activity (released pmol AFC/min) was calculated from the initial linear reaction part. Ac-VEID-AFC hydrolysis initial velocities were measured with 10 nM active-site titrated Casp6 and […] Ac-VEID-AFC. Initial velocities v versus substrate concentration [S] were fit to a rectangular hyperbola using Michaelis-Menten equation in GraphPad Prism 5 (GraphPad Software, La Jolla, CA, USA).
In fluorescence-based Casp6 activity assay, 10 µM Ac-VEID-AFC was added to 20 nM Casp6 in SB with 100 μM compound and 1% dimethyl sulfoxide (DMSO), and reaction rate was measured for 20 min at 37 °C as above. Compound potency was calculated by normalising Ac-VEID-AFC cleavage rate to 1% DMSO control. In colorimetric Casp6 activity assay, 200 µM Ac-VEID-pNA (N-acetyl-Val-Glu-Ile-Asp-p-nitroanilide, Enzo Life Sciences) was added to 200 nM Casp6 in SB with 100 μM compound, and Ac-VEID-pNA cleavage rate was measured at 37 °C for 30 min in clear 96-well plate (Sartstedt, Nümbrecht, Germany) using Synergy H4 plate reader at 405 nm. Absorbance was converted to the released pNA amount based on a standard curve of 0–250 µM pNA. Cleavage rates were calculated from the linear assay phase and were normalised to 1% DMSO control. In Casp6-C163A cleavage assay, 0.5 ng/µl Casp6-WT was preincubated with 100 µM inhibitor, 5 µM Q-VD-OPh or 1% DMSO in SB (30 min, RT), followed by transfer on ice, addition of 0.5 µg/µl Casp6-C163A, and incubation (37 °C, 5, 10 and 15 min). Reactions were stopped by adding SDS-PAGE sample buffer (62.5 mM Tris pH 6.8, 2% SDS, 0.1 M DTT, 0.01% Bromphenol Blue, 10% glycerol) and heating (5 min, 95 °C). Samples (2 µl) were analysed on 15% SDS-PAGE gels, proteins were stained with Coomassie blue, and gels were de-stained with 10% acetic acid. The intensities of protein bands were quantified from scanned gels using ImageJ. The band intensity of Casp6-C163A without a prodomain was plotted against the time and the Casp6-C163A cleavage rates were calculated from the slopes of linear plots. The % activity of Casp6-WT in the presence of inhibitors was calculated relative to DMSO control.
IC50 values were determined against 20 nM Casp6 active sites in fluorescence-based Casp6 activity assay with 10 µM Ac-VEID-AFC and 1 nM-500 µM inhibitor. IC50 was calculated with GraphPad Prism 5 by a nonlinear regression fit for log inhibitor vs relative Casp6 activity (% DMSO control) using a Hill slope of – 1, and top and bottom constraints of 100 and 0, respectively.

[2] = Ac-VEID-AFC hydrolysis kinetics of recombinant Casp6 variants (Michaelis-Menten); type: biochemical, human; details: for Km / kcat: Ac-VEID-AFC hydrolysis, mean ± SD
Text: In this study, we investigated how naturally occurring rare missense variants of human CASP6 affect Casp6 activity and structure. […] A34, E35, A109, and T182 are not conserved in 12 human caspases and in Casp6 from different species (Fig. 1a,b). Recombinant Casp6-WT and the four variants were expressed in E. coli, purified, and active site titrated (Fig. S2) for functional analyses. Like Casp6-WT, Casp6 variants, underwent complete self-processing at TETD23, and TEVD193 sites, and slight self-cleavage at the DVVD179 site, generating mainly large subunit with a linker (LS-L), small subunit (SS), and a minor amount of large subunit (LS) (Fig. 1c,d).
as §1

Row | Molecule | % Inhibition with 100 µM compound (fluorescence assay) [1] | Km [2] [µM] | kcat [2] [s⁻¹] | further results
1 | COC(=O)c1cc(CN)cc(NC(=O)c2ccco2)c1 [Compound C13B] | 2.3 ± 3.1^a % | – | – | potency against Casp6 (in words) [1]: low potency
2 | COC(=O)c1cc(CNC(=O)c2c(-c3ccccc3)noc2C)cc(NC(=O)c2ccco2)c1 [Compound C13D] | 5.5 ± 4.1^a % | – | – | fold increase in IC50 (reduction in potency) compared to C13 [1]: 155 fold
3 | COC(=O)c1cc(CNC(=O)C(C)(C)C)cc(NC(=O)c2ccco2)c1 [Compound C13E] | −8.3 ± 1.7^a % | – | – | potency against Casp6 (in words) [1]: low potency
4 | COC(=O)c1cc(CNC(=O)C2(c3ccc(Cl)cc3)CCC2)cc(NC(=O)c2ccco2)c1 [Compound C13F] | 43.2 ± 10.9^a % | – | – | fold increase in IC50 (reduction in potency) compared to C13 [1]: 2 fold; IC50 [1]: 27 ± 1.6 µM
5 | COC(=O)c1cc(CNC(=O)c2cc(C)cc(C)c2)cc(NC(=O)c2ccco2)c1 [Compound C13G] | 55.5 ± 8.8^a % | – | – | fold increase in IC50 (reduction in potency) compared to C13 [1]: 2 fold; IC50 [1]: 21.5 ± 2 µM; potency for Casp6 of in-house synthesised compound compared to commercial compound ([1]; synthesised in the authors' laboratory vs commercial source): lower potency
6 | Casp6-L200A: Casp6 L200A alanine mutant from full-length construct, poorly self-processed (protein, UniProt P55212 1-293, looked up, variant L200A, full-length, Casp6 L200A alanine mutant from full-length construct, poorly self-processed) MSSASGLRRGHPAGGEENMTETDAFYKREMFDPAEKYKMDHRRRGIALIFNHERFFWHLTLPERRGTCADRDNLTRRFSDLGFEVKCFNDLKAEELLLKIHEVSTVSHADADCFVCVFLSHGEGNHIYAYDAKIEIQTLTGLFKGDKCHSLVGKPKIFIIQACRGNQHDVPVIPLDVVDNQTEKLDTNITEVDAASVYTAPAGADFLMCYSVAEGYYSHRETVNGSWYIQDLCEMLGKYGSSLEFTELLTLVNRKVSQRRVDFCKDPSAIGKKQVPCFASMLTKKLHFFPKSN | – | 316 ± 162 | 0.05 ± 0.03 | fold higher KM compared to Casp6-WT or Casp6-WT-LS-SS [2]: 10 fold; fold reduction in kcat compared to Casp6-WT [2]: 45 fold
7 | Casp6-WT: recombinant wild-type human Casp6 expressed in E. coli from full-length construct (protein, UniProt P55212 1-293, looked up, full-length, recombinant wild-type human Casp6 expressed in E. coli from full-length construct) MSSASGLRRGHPAGGEENMTETDAFYKREMFDPAEKYKMDHRRRGIALIFNHERFFWHLTLPERRGTCADRDNLTRRFSDLGFEVKCFNDLKAEELLLKIHEVSTVSHADADCFVCVFLSHGEGNHIYAYDAKIEIQTLTGLFKGDKCHSLVGKPKIFIIQACRGNQHDVPVIPLDVVDNQTEKLDTNITEVDAASVYTLPAGADFLMCYSVAEGYYSHRETVNGSWYIQDLCEMLGKYGSSLEFTELLTLVNRKVSQRRVDFCKDPSAIGKKQVPCFASMLTKKLHFFPKSN | – | 31.2 ± 6.7 | 2.27 ± 0.30 | –
8 | Casp6-K284A-LS-SS: fully processed Casp6 K284A from co-expression of large and small subunits (protein, UniProt P55212 1-293, looked up, variant K284A) MSSASGLRRGHPAGGEENMTETDAFYKREMFDPAEKYKMDHRRRGIALIFNHERFFWHLTLPERRGTCADRDNLTRRFSDLGFEVKCFNDLKAEELLLKIHEVSTVSHADADCFVCVFLSHGEGNHIYAYDAKIEIQTLTGLFKGDKCHSLVGKPKIFIIQACRGNQHDVPVIPLDVVDNQTEKLDTNITEVDAASVYTLPAGADFLMCYSVAEGYYSHRETVNGSWYIQDLCEMLGKYGSSLEFTELLTLVNRKVSQRRVDFCKDPSAIGKKQVPCFASMLTAKLHFFPKSN | – | 27.7 ± 2.7 | 2.8 ± 0.2 | –
9 | Casp6-L200A-LS-SS: fully processed Casp6 L200A from co-expression of large and small subunits (protein, UniProt P55212 1-293, looked up, variant L200A) MSSASGLRRGHPAGGEENMTETDAFYKREMFDPAEKYKMDHRRRGIALIFNHERFFWHLTLPERRGTCADRDNLTRRFSDLGFEVKCFNDLKAEELLLKIHEVSTVSHADADCFVCVFLSHGEGNHIYAYDAKIEIQTLTGLFKGDKCHSLVGKPKIFIIQACRGNQHDVPVIPLDVVDNQTEKLDTNITEVDAASVYTAPAGADFLMCYSVAEGYYSHRETVNGSWYIQDLCEMLGKYGSSLEFTELLTLVNRKVSQRRVDFCKDPSAIGKKQVPCFASMLTKKLHFFPKSN | – | 196 ± 84.4 | 2.8 ± 0.8 | fold higher KM compared to Casp6-WT or Casp6-WT-LS-SS [2]: 8 fold
10 | Casp6-A34E: recombinant rare natural human Casp6 missense variant A34E (protein, UniProt P55212 1-293, looked up, variant A34E) MSSASGLRRGHPAGGEENMTETDAFYKREMFDPEEKYKMDHRRRGIALIFNHERFFWHLTLPERRGTCADRDNLTRRFSDLGFEVKCFNDLKAEELLLKIHEVSTVSHADADCFVCVFLSHGEGNHIYAYDAKIEIQTLTGLFKGDKCHSLVGKPKIFIIQACRGNQHDVPVIPLDVVDNQTEKLDTNITEVDAASVYTLPAGADFLMCYSVAEGYYSHRETVNGSWYIQDLCEMLGKYGSSLEFTELLTLVNRKVSQRRVDFCKDPSAIGKKQVPCFASMLTKKLHFFPKSN | – | 22.7 ± 0.8 | 2.04 ± 0.10 | –
11 | Casp6-E35K: recombinant rare natural human Casp6 missense variant E35K (protein, left off: His (from the plasmid name pET23b-Casp6-His), end not stated, state not stated) chain 1: AFYKREMFDPAKKYKMDHRRRGIALIFNHERFFWHLTLPERRGTCADRDNLTRRFSDLGFEVKCFNDLKAEELLLKIHEVSTVSHADADCFVCVFLSHGEGNHIYAYDAKIEIQTLTGLFKGDKCHSLVGKPKIFIIQACRGNQHDVPVIPLDVVDNQTEKLDTNITEVD chain 2: AASVYTLPAGADFLMCYSVAEGYYSHRETVNGSWYIQDLCEMLGKYGSSLEFTELLTLVNRKVSQRRVDFCKDPSAIGKKQVPCFASMLTKKLHFFPKSN | – | 37.1 ± 4.9 | 1.71 ± 0.13 | fold reduced catalytic efficiency kcat/KM compared with Casp6-WT [2]: ~ 2 fold
